Results from doi:10.1101/2023.10.15.562437, “The guide RNA sequence dictates the slicing kinetics and conformational dynamics of the Argonaute silencing complex”.

Legend:
AGO2 D669A [1] = biological target: T1, AGO2 D669A (UniProt Q9UKV8 1-859, D669A); experiment: hydroxyl-radical footprinting; peaks at 9-11; same at 1, 4 and 15 min; Footprinting: 18 mM HEPES pH 7.4, 100 mM KOAc, 1.2 mM Mg(OAc)2, 0.015 mg/mL BSA, 0.0015 mg/mL yeast tRNA, 0.01% IGEPAL, 8.75 mM DTT, 37 C; filter binding (titra); conditions: protein: recombinant; tags: N-terminal 3xFLAG; label: 32P 5' end of guide; guide paired to internal site of longer target
T1 sequence (Q9UKV8 whole entry D669A): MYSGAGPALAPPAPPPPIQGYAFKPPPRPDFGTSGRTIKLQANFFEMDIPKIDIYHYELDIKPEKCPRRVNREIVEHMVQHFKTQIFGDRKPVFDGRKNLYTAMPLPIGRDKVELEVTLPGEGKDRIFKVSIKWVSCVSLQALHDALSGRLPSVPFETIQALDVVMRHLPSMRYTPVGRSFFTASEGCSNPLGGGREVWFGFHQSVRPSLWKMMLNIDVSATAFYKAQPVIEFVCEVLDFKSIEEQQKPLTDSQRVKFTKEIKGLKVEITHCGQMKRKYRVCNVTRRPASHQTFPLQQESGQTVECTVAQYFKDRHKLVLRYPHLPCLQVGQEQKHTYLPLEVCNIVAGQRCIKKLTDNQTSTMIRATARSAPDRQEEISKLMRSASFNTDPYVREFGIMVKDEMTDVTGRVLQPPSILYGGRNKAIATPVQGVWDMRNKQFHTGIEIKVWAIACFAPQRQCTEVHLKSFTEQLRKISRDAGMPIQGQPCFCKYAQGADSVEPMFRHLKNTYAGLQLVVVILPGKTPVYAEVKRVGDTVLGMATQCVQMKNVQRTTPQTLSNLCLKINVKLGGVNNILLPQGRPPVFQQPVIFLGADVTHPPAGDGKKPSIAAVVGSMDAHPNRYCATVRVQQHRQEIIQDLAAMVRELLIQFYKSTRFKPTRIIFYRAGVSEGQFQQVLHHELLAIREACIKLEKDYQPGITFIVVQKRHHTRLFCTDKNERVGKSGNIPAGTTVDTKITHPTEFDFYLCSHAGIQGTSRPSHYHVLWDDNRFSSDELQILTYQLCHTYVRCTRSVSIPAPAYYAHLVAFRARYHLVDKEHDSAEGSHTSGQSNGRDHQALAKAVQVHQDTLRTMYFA

AGO2 D669A [2] = biological target: T1, AGO2 D669A; experiment: hydroxyl-radical footprinting; elevated reactivity at 9-11; Footprinting: 18 mM HEPES pH 7.4, 100 mM KOAc, 1.2 mM Mg(OAc)2, 0.015 mg/mL BSA, 0.0015 mg/mL yeast tRNA, 0.01% IGEPAL, 8.75 mM DTT, 37 C; filter binding (titra); conditions: protein: recombinant; tags: N-terminal 3xFLAG; label: 32P 5' end of guide; complementary up to guide position 16

| Binder | binding result (AGO2 D669A [1]) | binding result (AGO2 D669A [2]) |
| --- | --- | --- |
| miR-196a guide + perfect target (dsRNA, guide 5' phosphate) RNA 1: UAGGUAGUUUCAUGUUGUUGGG RNA 2: GGGAACAACAACAACAACAACAACAACAACAACCCAACAACAUGAAACUACCUAAACAACAACAACAACA | binds |  |
| miR-124 guide + 16-bp target (dsRNA, guide 5' phosphate) RNA 1: UAAGGCACGCGGUGAAUGCCAA RNA 2: GGGAACAACAACAACAACAACAACAACAACAAAAUUUUUUCACCGCGUGCCUUAAACAACAACAACAACA |  | binds |
